From PMC8589836, “A viral genome packaging ring-ATPase is a flexibly coordinated pentamer” (Nature Communications, 2021)
Substitutions are numbered along the chain they refer to. In names and notes the source's numbering stands.

Key:
[1] = biological target: the molecule itself; experiment: single-molecule TIRF fluorescence (Cy3 photobleaching step counting); motors assembled from T4 heads, Cy3-labelled SNAP-gp17 monomer (2-5 uM), 1 mM ATP-gammaS and 120-bp DNA; heads held on a PEG surface by anti-T4 polyclonal antibody; only spots with packaged Cy5-DNA counted; binomial fit of step counts (486 trajectories); room temperature
[2] = biological target: the molecule itself; experiment: not stated; assembly of the Q163A mutant into a pentamer; shown only in Supplementary Fig. 3b-g
[3] = biological target: T1, WT-gp17 (His-tagged, unlabeled wild-type phage T4 gp17) (bacteriophage T4, UniProt P17312 1-610); experiment: single-molecule TIRF fluorescence (Cy3 photobleaching step counting); only the inactive SNAP-Q163A-gp17 labelled with Cy3, mixed with unlabeled WT gp17 and assembled on T4 heads; heads held on a PEG surface by anti-T4 antibody; Cy5-DNA and ATP flowed in, DNase I after ~10 min; Cy3 and Cy5 spots colocalised (2405 trajectories); room temperature; details: both partners purified
T1 construct: Large terminase gp17 of bacteriophage T4; also called unlabeled WT gp17; source: E. coli BL21 (DE3) pLysS or codon-plus BL21 (DE3) RIPL, purified (HisTrap, Superdex-200 SEC)

B1: SNAP-gp17 (SNAP-tagged full-length wild-type phage T4 large terminase gp17, labelled with SNAP-Surface 549) (enzyme, bacteriophage T4, UniProt P17312 1-610, looked up)
chain: MEQPINVLNDFHPLNEAGKILIKHPSLAERKDEDGIHWIKSQWDGKWYPEKFSDYLRLHKIVKIPNNSDKPELFQTYKDKNNKRSRYMGLPNLKRANIKTQWTREMVEEWKKCRDDIVYFAETYCAITHIDYGVIKVQLRDYQRDMLKIMSSKRMTVCNLSRQLGKTTVVAIFLAHFVCFNKDKAVGILAHKGSMSAEVLDRTKQAIELLPDFLQPGIVEWNKGSIELDNGSSIGAYASSPDAVRGNSFAMIYIDECAFIPNFHDSWLAIQPVISSGRRSKIIITTTPNGLNHFYDIWTAAVEGKSGFEPYTAIWNSVKERLYNDEDIFDDGWQWSIQTINGSSLAQFRQEHTAAFEGTSGTLISGMKLAVMDFIEVTPDDHGFHQFKKPEPDRKYIATLDCSEGRGQDYHALHIIDVTDDVWEQVGVLHSNTISHLILPDIVMRYLVEYNECPVYIELNSTGVSVAKSLYMDLEYEGVICDSYTDLGMKQTKRTKAVGCSTLKDLIEKDKLIIHHRATIQEFRTFSEKGVSWAAEEGYHDDLVMSLVIFGWLSTQSKFIDYADKDDMRLASEVFSKELQDMSDDYAPVIFVDSVHSAEYVPVSHGMSMV
modifications: SNAP-Surface 549 fluorophore (called Cy3 in the paper) on the SNAP-tag
notes: Large terminase gp17 of bacteriophage T4, full-length wild type, amplified from pET15-gp17 and inserted into pET-SNAP; Order on the chain as printed: SNAP-tag, hexa-histidine tag, full-length gp17; Added as a monomer; it assembles into the motor on the T4 head; also called WT gp17; Cy3-labeled gp17; not shown: SNAP-tag, N-terminal, kept
stoichiometry N [1]: 5

B2: SNAP-Q163A-gp17 (ATPase-defective Walker A P-loop mutant of SNAP-tagged gp17, labelled with SNAP-Surface 549) (enzyme, bacteriophage T4, UniProt P17312 1-610, looked up)
chain: B1 chain with Q163A
modifications: SNAP-Surface 549 fluorophore (called Cy3 in the paper) on the SNAP-tag
notes: Large terminase gp17 of bacteriophage T4, full length, with Q163A; made by overlap PCR with the SNAP-gp17 construct as template; also called Q163A mutant; not shown: SNAP-tag, N-terminal, kept
stoichiometry N [2]: 5
binding result [3]: binds
